Reference: the Human Domainome abundance scans (Beltran et al. 2025)
± gives the uncertainty stated by the source.

B1: Tumor protein p73, residues 487 to 549; numbered along this chain, O15350 (parent)
chain: YHADPSLVSFLTGLGCPNCIEYFTSQGLQSIYHLQNLTIEDLGALKIPEQYRMTIWRGLQDLK

Variants of: B1
Experiment: abundance fitness (aPCA) (normalised: wild type 0, dead -1); higher = more abundant; growth selection in yeast, the domain comes from the species named
Conditions: Homo sapiens

Row | Variant | abundance fitness
1 | E21D | 0.012 ± 0.065
2 | E21Y | -0.042 ± 0.073
3 | E21P | -0.053 ± 0.049
4 | E21A | -0.051 ± 0.04
5 | D41C | -0.361 ± 0.07
6 | D41S | 0 ± 0.031
7 | D41G | 0.006 ± 0.041
8 | D41P | -1.05 ± 0.15
9 | D41Q | 0.105 ± 0.057
10 | Q50L | -0.036 ± 0.037
11 | Q50M | 0.058 ± 0.052
12 | Q50H | 0.039 ± 0.065
13 | Q50T | -0.034 ± 0.05
14 | Q50N | 0.009 ± 0.07
15 | N36T | -0.026 ± 0.059
16 | N36D | 0.075 ± 0.039
17 | N36V | -0.025 ± 0.035
18 | N36W | -0.078 ± 0.046
19 | N36E | 0.087 ± 0.043
20 | Q26H | 0.035 ± 0.085
21 | Q26P | -0.204 ± 0.052
22 | Q26D | -0.2 ± 0.086
23 | Q26E | 0.011 ± 0.038
24 | Q26A | 0.079 ± 0.037

Row | Variant | abundance fitness
25 | Q26K | 0.032 ± 0.048
26 | V8W | 0.083 ± 0.036
27 | V8N | -0.052 ± 0.056
28 | V8S | 0.005 ± 0.042
29 | V8Q | 0.037 ± 0.046
30 | V8T | 0.117 ± 0.046
31 | V8G | 0.228 ± 0.032
32 | G43E | 0.07 ± 0.061
33 | G43I | -0.135 ± 0.1
34 | G43Y | -0.005 ± 0.069
35 | G43Q | 0.061 ± 0.046
36 | G43S | -0.013 ± 0.05
37 | G43M | 0.028 ± 0.066
38 | G43H | 0.16 ± 0.11
39 | G43N | -0.003 ± 0.1
40 | I47K | -0.929 ± 0.17
41 | I47R | -0.962 ± 0.063
42 | I47G | -0.913 ± 0.053
43 | M53I | -0.072 ± 0.1
44 | M53K | -0.033 ± 0.078
45 | M53N | 0.01 ± 0.075
46 | M53R | 0.027 ± 0.028
47 | M53A | -0.025 ± 0.023
48 | M53D | 0.019 ± 0.047

Row | Variant | abundance fitness
49 | A3P | 0.361 ± 0.099
50 | A3I | 0.405 ± 0.089
51 | A3L | 0.311 ± 0.042
52 | A3E | 0.197 ± 0.063
53 | A3R | 0.326 ± 0.028
54 | D4W | 0.181 ± 0.18
55 | Y22M | -0.026 ± 0.055
56 | Y22F | 0.002 ± 0.081
57 | Y22P | -0.069 ± 0.074
58 | Y22E | -0.107 ± 0.046
59 | Y22A | -0.035 ± 0.036
60 | K46P | 0.01 ± 0.059
61 | K46E | -0.127 ± 0.043
62 | K46G | 0.025 ± 0.027
63 | K46R | 0.041 ± 0.03
64 | K46N | 0.009 ± 0.057
65 | K46L | -0.069 ± 0.032
66 | K46F | -0.142 ± 0.085
67 | K63A | -0.082 ± 0.16
68 | K63P | -0.394 ± 0.38
69 | K63E | 0.103 ± 0.063
70 | Q35S | 0.071 ± 0.043
71 | Q35A | -0.019 ± 0.042
72 | Q35Y | 0.031 ± 0.057

Row | Variant | abundance fitness
73 | Q35W | -0.245 ± 0.041
74 | Q35M | -0.058 ± 0.051
75 | L42T | -0.45 ± 0.062
76 | L42M | -0.078 ± 0.047
77 | L42S | -0.785 ± 0.08
78 | L42P | -0.696 ± 0.11
79 | L45T | -0.076 ± 0.039
80 | L45A | -0.18 ± 0.042
81 | L45H | -0.45 ± 0.15
82 | L45K | -0.216 ± 0.076
83 | R57T | 0.024 ± 0.054
84 | R57N | -0.134 ± 0.11
85 | R57A | -0.068 ± 0.041
86 | R57W | -0.114 ± 0.039
87 | R57Q | -0.036 ± 0.042
88 | R57H | 0.012 ± 0.12
89 | Y1L | 0.075 ± 0.059
90 | Y1R | -0.175 ± 0.054
91 | Y1S | 0.078 ± 0.05
92 | Y1F | 0.201 ± 0.078
93 | Y1A | 0.003 ± 0.28
94 | Y1D | 0.23 ± 0.23
95 | S9H | -0.345 ± 0.16
96 | S9M | -0.207 ± 0.054

Row | Variant | abundance fitness
97 | S9K | -0.017 ± 0.042
98 | T12M | 0.021 ± 0.045
99 | T12E | 0.114 ± 0.044
100 | T12P | -1.1 ± 0.15
101 | T12K | 0.087 ± 0.051
102 | T12V | -0.061 ± 0.028
103 | N18M | -0.163 ± 0.047
104 | N18Y | -0.167 ± 0.062
105 | N18C | -0.125 ± 0.095
106 | N18K | -0.163 ± 0.045
107 | N18S | -0.12 ± 0.042
108 | N18G | 0.061 ± 0.039
109 | N18H | 0.04 ± 0.082
110 | C19H | -0.399 ± 0.077
111 | C19W | -0.454 ± 0.065
112 | C19E | -0.236 ± 0.058
113 | P17M | -0.007 ± 0.05
114 | P17W | -0.14 ± 0.039
115 | P17T | 0.028 ± 0.048
116 | P17V | 0.007 ± 0.035
117 | G13I | -0.138 ± 0.071
118 | G13T | -0.012 ± 0.047
119 | G13C | -0.142 ± 0.077
120 | G13Q | 0.024 ± 0.047

Row | Variant | abundance fitness
121 | G13L | -0.124 ± 0.035
122 | Q60S | 0.018 ± 0.036
123 | Q60K | 0.117 ± 0.044
124 | Q60I | 0.034 ± 0.066
125 | I55T | -0.598 ± 0.077
126 | I55E | -0.869 ± 0.14
127 | I55M | -0.241 ± 0.057
128 | F23C | -0.315 ± 0.053
129 | F23M | -0.306 ± 0.057
130 | L62Y | 0.008 ± 0.087
131 | L62K | -0.257 ± 0.08
132 | L62P | -0.032 ± 0.058
133 | L62E | -0.007 ± 0.038
134 | L62C | -0.117 ± 0.095
135 | L62F | -0.059 ± 0.053
136 | L59F | -0.065 ± 0.053
137 | L59R | -0.733 ± 0.063
138 | E40S | -0.048 ± 0.053
139 | E40R | -0.059 ± 0.035
140 | E40Q | -0.124 ± 0.085
141 | E40G | 0.053 ± 0.043
142 | Y32C | 0.112 ± 0.054
143 | Y32T | 0.014 ± 0.059
144 | Y32D | 0.03 ± 0.071

Row | Variant | abundance fitness
145 | Y32F | 0.069 ± 0.061
146 | Y32G | 0.104 ± 0.027
147 | Y32P | -0.04 ± 0.07
148 | Y32A | 0.012 ± 0.053
149 | F10H | -0.971 ± 0.18
150 | F10N | -0.804 ± 0.35
151 | F10E | -1.02 ± 0.17
152 | F10P | -0.748 ± 0.24
153 | F10C | -0.588 ± 0.14
154 | H2R | 0.148 ± 0.037
155 | H2E | 0.066 ± 0.046
156 | H2T | 0.273 ± 0.053
157 | H2D | -0.073 ± 0.095
158 | H2P | 0 ± 0.15
159 | H2A | -0.094 ± 0.061
160 | H2G | -0.096 ± 0.045
161 | H2Q | 0.345 ± 0.058
162 | H2F | 0.145 ± 0.11
163 | H2L | 0.202 ± 0.044
164 | S6C | 0.036 ± 0.067
165 | S6R | 0.013 ± 0.035
166 | S6L | -0.15 ± 0.056
167 | S6N | -0.076 ± 0.21
